# Where no end group is shown, it is not given here.
# T1: C2 domain of FVIII (Homo sapiens (Human), UniProt P00451 2192-2351)
# T1 construct: Negative control
# T1 sequence: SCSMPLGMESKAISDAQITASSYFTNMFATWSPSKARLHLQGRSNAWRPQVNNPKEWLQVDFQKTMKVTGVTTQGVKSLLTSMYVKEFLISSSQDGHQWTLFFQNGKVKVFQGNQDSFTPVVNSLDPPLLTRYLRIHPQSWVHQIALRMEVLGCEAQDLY
# B1: SEQ ID NO 19 (peptide)
# peptide: IADKEYTNIFLKFGSGYVS
# modifications: also: biotinylated (position not given here)
# notes: random peptide of the Octet screening
# B2: SEQ ID NO 6 (peptide)
# peptide: NKLTSGDRPGLWFMV
# modifications: also: biotinylated (position not given here)
# notes: as for B1
# B3: SEQ ID NO 8 (peptide)
# peptide: EPLMTMKMIRVMRKL
# modifications: also: biotinylated (position not given here)
# notes: as for B1
# B4: SEQ ID NO 16 (peptide)
# peptide: AYRPSTSREHWRRHW
# modifications: also: biotinylated (position not given here)
# notes: as for B1
# B5: SEQ ID NO 4 (peptide)
# peptide: PIRIMIHSLIMNRPT
# modifications: also: biotinylated (position not given here)
# notes: as for B1
# B6: SEQ ID NO 14 (peptide)
# peptide: QRIKGLHFATSMGYA
# modifications: also: biotinylated (position not given here)
# notes: as for B1
# B7: SEQ ID NO 10 (peptide)
# peptide: EMMKPNYADLIMRKR
# modifications: also: biotinylated (position not given here)
# notes: as for B1
# B8: SEQ ID NO 13 (peptide)
# peptide: DMFKSVRQLMMSRGR
# modifications: also: biotinylated (position not given here)
# notes: as for B1
# B9: SEQ ID NO 11 (peptide)
# peptide: LSGKNGPWVKMIMWG
# modifications: also: biotinylated (position not given here)
# notes: as for B1
# B10: SEQ ID NO 3 (peptide)
# peptide: RMRMYSSLRAWKESA
# modifications: also: biotinylated (position not given here)
# notes: as for B1
# B11: SEQ ID NO 20 (peptide)
# peptide: RVPLVDRATCLRSTKFTIYNN
# modifications: also: biotinylated (position not given here)
# notes: as for B1
# B12: SEQ ID NO 9 (peptide)
# peptide: TERQMIHKIFALMSG
# modifications: also: biotinylated (position not given here)
# notes: as for B1
# B13: SEQ ID NO 21 (peptide)
# peptide: IADKEYTNIFLKFGVSVLVDRATCLRSTKFTIYNN
# modifications: also: biotinylated (position not given here)
# notes: as for B1
# B14: SEQ ID NO 22 (peptide)
# peptide: EYISWEYC
# modifications: also: biotinylated (position not given here)
# notes: as for B1
# B15: SEQ ID NO 17 (peptide)
# peptide: KKRDARTNYRYMAYS
# modifications: also: biotinylated (position not given here)
# notes: as for B1
# B16: SEQ ID NO 15 (peptide)
# peptide: SPWSWQRQMKKWTPQ
# modifications: also: biotinylated (position not given here)
# notes: as for B1
# B17: SEQ ID NO 5 (peptide)
# peptide: SPSWVRPSIMEWRMN
# modifications: also: biotinylated (position not given here)
# notes: as for B1
# B18: SEQ ID NO 23 (peptide)
# peptide: WCPFGFEGKNCELDVTCNIKNGRCEQFCKNSADNKVVCS
# modifications: cysteine pairing not given here; also: biotinylated (position not given here)
# notes: as for B1
# B19: SEQ ID NO 12 (peptide)
# peptide: WKHHMRKAIPKYEGK
# modifications: also: biotinylated (position not given here)
# notes: as for B1
# B20: SEQ ID NO 2 (peptide)
# peptide: TTWGMRIRLFERQAR
# modifications: also: biotinylated (position not given here)
# notes: as for B1
# B21: SEQ ID NO 7 (peptide)
# peptide: RDERMKLIRNFSPIM
# modifications: also: biotinylated (position not given here)
# notes: as for B1
# B22: SEQ ID NO 18 (peptide)
# peptide: ISRWRLLMGKKSQHD
# modifications: also: biotinylated (position not given here)
# notes: as for B1
# Molecular target: T2, recombinant FIX (UniProt P00740 47-461)
# T2 construct: Negative control; also called factor IX
# T2 sequence (P00740 47-461 limits assumed): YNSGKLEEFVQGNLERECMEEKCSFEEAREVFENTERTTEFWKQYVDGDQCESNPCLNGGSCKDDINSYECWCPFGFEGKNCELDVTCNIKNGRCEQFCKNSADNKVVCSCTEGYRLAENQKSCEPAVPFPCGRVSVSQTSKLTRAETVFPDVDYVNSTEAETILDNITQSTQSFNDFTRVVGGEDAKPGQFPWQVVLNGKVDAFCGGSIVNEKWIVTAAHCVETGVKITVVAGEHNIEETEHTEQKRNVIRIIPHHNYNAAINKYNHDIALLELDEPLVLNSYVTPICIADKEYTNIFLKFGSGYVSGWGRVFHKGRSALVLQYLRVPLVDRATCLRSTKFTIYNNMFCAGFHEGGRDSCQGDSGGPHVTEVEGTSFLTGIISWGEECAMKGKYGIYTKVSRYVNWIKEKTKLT
# Experiment: BLI (Octet Red), biotinylated peptide on streptavidin sensor
row,binding result,Binder
1,no binding,B1
2,no binding,B2
3,no binding,B3
4,no binding,B4
5,no binding,B5
6,no binding,B6
7,no binding,B7
8,no binding,B8
9,no binding,B9
10,no binding,B10
11,no binding,B11
12,no binding,B12
13,no binding,B13
14,no binding,B14
15,no binding,B15
16,no binding,B16
17,no binding,B17
18,no binding,B18
19,no binding,B19
20,no binding,B20
21,no binding,B21
22,no binding,B22

# Molecular target: T1, C2 domain of FVIII
# Experiment: as above
row,binding result,Binder
1,no binding,B1
2,no binding,B2
3,no binding,B3
4,no binding,B4
5,no binding,B5
6,no binding,B6
7,no binding,B7
8,no binding,B8
9,no binding,B9
10,no binding,B10
11,no binding,B11
12,no binding,B12
13,no binding,B13
14,no binding,B14
15,no binding,B15
16,no binding,B16
17,no binding,B17
18,no binding,B18
19,no binding,B19
20,no binding,B20
21,no binding,B21
22,no binding,B22

# From patent WO2011095604A1 (dated 2011)
